In data set [1] the test system is HeLa Kyoto. The experiment in a line: solubility in G1/S (NP-40 vs SDS abundance) (log2 ratio); higher = more soluble. The note with it: cell cycle stage: G1/S.
Data set [2] has as its system HeLa Kyoto. The experiment in a line: solubility change mitosis vs G1/S (difference of NP-40 vs SDS log2 ratios) (log2 ratio difference); higher = more soluble in mitosis.
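Wherever solubility change mitosis vs G1/S (difference of NP-40 vs SDS log2 ratios) is given: synchronized HeLa Kyoto cells (double thymidine block for G1/S, nocodazole release for mitosis), protein amounts in NP-40 versus SDS lysates quantified by mass spectrometry, three biological replicates.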
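Wherever solubility in G1/S (NP-40 vs SDS abundance) is given: HeLa Kyoto cells arrested at G1/S by double thymidine block, proteins quantified by TMT10plex mass spectrometry in mild NP-40 versus SDS extracts, three biological replicates.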

Take “MEKYVRLQKIGEGSFGKAILVKSTEDGRQYVIKEINISRMSSKEREESRREVAVLANMKHPNIVQYRESFEENGSLYIVMDYCEGGDLFKRINAQKGVLFQEDQILDWFVQICLALKHVHDRKILHRDIKSQNIFLTKDGTVQLGDFGIARVLNSTVELARTCIGTPYYLSPEICENKPYNNKSDIWALGCVLYELCTLKHAFEAGSMKNLVLKIISGSFPPVSLHYSYDLRSLVSQLFKRNPRDRPSVNSILEKGFIAKRIEKFLSPQLIAEEFCLKTFSKFGSQPIPAKRPASGQNSISVMPAQKITKPAAKYGIPLAYKKYGDKKLHEKKPLQKHKQAHQTPEKRVNTGEERRKISEEAARKRRLEFIEKEKKQKDQIISLMKAEQMKRQEKERLERINRAREQGWRNVLSAGGSGEVKAPFLGSGGTIAPSSFSSRGQYEHYHAIFDQMQQQRAEDNEAKWKREIYGRGLPERGILPGVRPGFPYGAAGHHHFPDADDIRKTLKRLKAVSKQANANRQKGQLAVERAKQVEEFLQRKREAMQNKARAEGHMVYLARLRQIRLQNFNERQQIKAKLRGEKKEANHSEGQEGSEEADMRRKKIESLKAHANARAAVLKEQLERKRKEAYEREKKVWEEHLVAKGVKSSDVSPPLGQHETGGSPSKQQMRSVISVTSALKEVGVDSSLTDTRETSEEMQKTNNAISSKREILRRLNENLKAQEDEKGKQNLSDTFEINVHEDAKEHEKEKSVSSDRKKWEAGGQLVIPLDELTLDTSFSTTERHTVGEVIKLGPNGSPRRAWGKSPTDSVLKILGEAELQLQTELLENTTIRSEISPEGEKYKPLITGEKKVQCISHEINPSAIVDSPVETKSPEFSEASPQMSLKLEGNLEEPDDLETEILQEPSGTNKDESLPCTITDVWISEEKETKETQSADRITIQENEVSEDGVSSTVDQLSDIHIEPGTNDSQHSKCDVDKSVQPEPFFHKVVHSEHLNLVPQVQSVQCSPEESFAFRSHSHLPPKNKNKNSLLIGLSTGLFDANNPKMLRTCSLPDLSKLFRTLMDVPTVGDVRQDNLEIDEIEDENIKEGPSDSEDIVFEETDTDLQELQASMEQLLREQPGEEYSEEEESVLKNSDVEPTANGTDVADEDDNPSSESALNEEWHSDNSDGEIASECECDSVFNHLEELRLHLEQEMGFEKFFEVYEKIKAIHEDEDENIEICSKIVQNILGNEHQHLYAKILHLVMADGAYQEDNDE [NEK1]”: the “solubility in G1/S (log2)” value in data set [1] is -0.156. Moreover, the “solubility change mitosis (log2)” value in data set [2] was -0.0529.
Regarding “MELAQEARELGCWAVEEMGVPVAARAPESTLRRLCLGQGADIWAYILQHVHSQRTVKKIRGNLLWYGHQDSPQVRRKLELEAAVTRLRAEIQELDQSLELMERDTEAQDTAMEQARQHTQDTQRRALLLRAQAGAMRRQQHTLRDPMQRLQNQLRRLQDMERKAKVDVTFGSLTSAALGLEPVVLRDVRTACTLRAQFLQNLLLPQAKRGSLPTPHDDHFGTSYQQWLSSVETLLTNHPPGHVLAALEHLAAEREAEIRSLCSGDGLGDTEISRPQAPDQSDSSQTLPSMVHLIQEGWRTVGVLVSQRSTLLKERQVLTQRLQGLVEEVERRVLGSSERQVLILGLRRCCLWTELKALHDQSQELQDAAGHRQLLLRELQAKQQRILHWRQLVEETQEQVRLLIKGNSASKTRLCRSPGEVLALVQRKVVPTFEAVAPQSRELLRCLEEEVRHLPHILLGTLLRHRPGELKPLPTVLPSIHQLHPASPRGSSFIALSHKLGLPPGKASELLLPAAASLRQDLLLLQDQRSLWCWDLLHMKTSLPPGLPTQELLQIQASQEKQQKENLGQALKRLEKLLKQALERIPELQGIVGDWWEQPGQAALSEELCQGLSLPQWRLRWVQAQGALQKLCS [HAUS5]”, the “solubility in G1/S (log2)” value in data set [1] came out at 0.307. Besides, in data set [2], the “solubility change mitosis (log2)” value is -0.0591.
On to “MELENIVANTVLLKAREGGGGNRKGKSKKWRQMLQFPHISQCEELRLSLERDYHSLCERQPIGRLLFREFCATRPELSRCVAFLDGVAEYEVTPDDKRKACGRQLTQNFLSHTGPDLIPEVPRQLVTNCTQRLEQGPCKDLFQELTRLTHEYLSVAPFADYLDSIYFNRFLQWKWLERQPVTKNTFRQYRVLGKGGFGEVCACQVRATGKMYACKKLEKKRIKKRKGEAMALNEKQILEKVNSRFVVSLAYAYETKDALCLVLTLMNGGDLKFHIYHMGQAGFPEARAVFYAAEICCGLEDLHRERIVYRDLKPENILLDDHGHIRISDLGLAVHVPEGQTIKGRVGTVGYMAPEVVKNERYTFSPDWWALGCLLYEMIAGQSPFQQRKKKIKREEVERLVKEVPEEYSERFSPQARSLCSQLLCKDPAERLGCRGGSAREVKEHPLFKKLNFKRLGAGMLEPPFKPDPQAIYCKDVLDIEQFSTVKGVELEPTDQDFYQKFATGSVPIPWQNEMVETECFQELNVFGLDGSVPPDLDWKGQPPAPPKKGLLQRLFSRQDCCGNCSDSEEELPTRL [GRK6]”, for which the “solubility in G1/S (log2)” value in data set [1] was -0.123. Also, in data set [2], the “solubility change mitosis (log2)” value was -0.198.
The like results for “MELPAVGEHVFAVESIEKKRIRKGRVEYLVKWRGWSPKYNTWEPEENILDPRLLIAFQNRERQEQLMGYRKRGPKPKPLVVQVPTFARRSNVLTGLQDSSTDNRAKLDLGAQGKGQGHQYELNSKKHHQYQPHSKERAGKPPPPGKSGKYYYQLNSKKHHPYQPDPKMYDLQYQGGHKEAPSPTCPDLGAKSHPPDKWAQGAGAKGYLGAVKPLAGAAGAPGKGSEKGPPNGMMPAPKEAVTGNGIGGKMKIVKNKNKNGRIVIVMSKYMENGMQAVKIKSGEVAEGEARSPSHKKRAADERHPPADRTFKKAAGAEEKKVEAPPKRREEEVSGVSDPQPQDAGSRKLSPTKEAFGEQPLQLTTKPDLLAWDPARNTHPPSHHPHPHPHHHHHHHHHHHHAVGLNLSHVRKRCLSETHGEREPCKKRLTARSISTPTCLGGSPAAERPADLPPAAALPQPEVILLDSDLDEPIDLRCVKTRSEAGEPPSSLQVKPETPASAAVAVAAAAAPTTTAEKPPAEAQDEPAESLSEFKPFFGNIIITDVTANCLTVTFKEYVTV [CBX4]” were, in that order, -0.386 and 0.583.
As for “MENLMTSSTLPPLFADEDGSKESNDLATTGLNHPEVPYSSGATSSTNNPEFVEDLSQGQLLQSESSNAAEGNEQRHEDEQRSKRGGWSKGRKRKKPLRDSNAPKSPLTGYVRFMNERREQLRAKRPEVPFPEITRMLGNEWSKLPPEEKQRYLDEADRDKERYMKELEQYQKTEAYKVFSRKTQDRQKGKSHRQDAARQATHDHEKETEVKERSVFDIPIFTEEFLNHSKAREAELRQLRKSNMEFEERNAALQKHVESMRTAVEKLEVDVIQERSRNTVLQQHLETLRQVLTSSFASMPLPGSGETPTVDTIDSYMNRLHSIILANPQDNENFIATVREVVNRLDR [HMG20A]”, the “solubility in G1/S (log2)” value in data set [1] is -0.0378. The “solubility change mitosis (log2)” value in data set [2] was 0.298.
The like results for “MENLPAVTTEEPTPMGRGPVGPSGGGSTRDQVRTVVMRPSVSWEKAGPEEAKAPVRGDEAPPARVAGPAAGTPPCQMGVYPTDLTLQLLAVRRKSRLRDPGLQQTLRGQLRLLENDSREMARVLGELSARLLSIHSDQDRIVVTFKTFEEIWKFSTYHALGFTHHCLANLLMDQAFWLLLPSEEEETAIQVHVDENALRLTHESLLIQEGPFFVLCPDHHVRVMTGPRDAGNGPQALRQASGAPQGEAAPETDSSPPSPSVSSEEVAVAAAPEPLIPFHQWALRIPQDPIDDAMGGPVMPGNPLMAVGLASALADFQGSGPEEMTFRGGDLIEILGAQVPSLPWCVGRHAASGRVGFVRSSLISMQGPVSELESAIFLNEEEKSFFSEGCFSEEDARQLLRRMSGTDVCSVYSLDSVEEAETEQPQEKEIPPPCLSLEPQETLQKVKNVLEQCKTCPGCPQEPASWGLCAASSDVSLQDPEEPSFCLEAEDDWEDPEALSSLLLFLNAPGYKASFRGLYDVALPWLSSVFRSFSDEEELTGRLAQARGAAKKAGLLMALARLCFLLGRLCSRRLKLSQARVYFEEALGALEGSFGDLFLVVAVYANLASIYRKQKNREKCAQVVPKAMALLLGTPDHICSTEAEGELLQLALRRAVGGQSLQAEARACFLLARHHVHLKQPEEALPFLERLLLLHRDSGAPEAAWLSDCYLLLADIYSRKCLPHLVLSCVKVASLRTRGSLAGSLRSVNLVLQNAPQPHSLPAQTSHYLRQALASLTPGTGQALRGPLYTSLAQLYSHHGCHGPAITFMTQAVEASAIAGVRAIVDHLVALAWLHVLHGQSPVALDILQSVRDAVVASEDQEGVIANMVAVALKRTGRTRQAAESYYRALRVARDLGQQRNQAVGLANFGALCLHAGASRLAQHYLLEAVRLFSRLPLGECGRDFTHVLLQLGHLCTRQGPAQQGKGYYEWALLVAVEMGHVESQLRAVQRLCHFYSAVMPSEAQCVIYHELQLSLACKVADKVLEGQLLETISQLYLSLGTERAYKSALDYTKRSLGIFIDLQKKEKEAHAWLQAGKIYYILRQSELVDLYIQVAQNVALYTGDPNLGLELFEAAGDIFFDGAWEREKAVSFYRDRALPLAVTTGNRKAELRLCNKLVALLATLEEPQEGLEFAHMALALSITLGDRLNERVAYHRLAALQHRLGHGELAEHFYLKALSLCNSPLEFDEETLYYVKVYLVLGDIIFYDLKDPFDAAGYYQLALAAAVDLGNKKAQLKIYTRLATIYHNFLLDREKSLFFYQKARTFATELNVRRVNLPPLPLCGWAPWLAPSHPR [SH3TC1]” were, in that order, -0.47 and 0.0532.
On the same counts, the results for “MEPIYPFARPQMNTRFPSSRMVPFHFPPSKCALWNPTPTGDFIYLHLSYYRNPKLVVTEKTIRLAYRHAKQNKKNSSCFLLGSLTADEDEEGVTLTVDRFDPGREVPECLEITPTASLPGDFLIPCKVHTQELCSREMIVHSVDDFSSALKALQCHICSKDSLDCGKLLSLRVHITSRESLDSVEFDLHWAAVTLANNFKCTPVKPIPIIPTALARNLSSNLNISQVQGTYKYGYLTMDETRKLLLLLESDPKVYSLPLVGIWLSGITHIYSPQVWACCLRYIFNSSVQERVFSESGNFIIVLYSMTHKEPEFYECFPCDGKIPDFRFQLLTSKETLHLFKNVEPPDKNPIRCELSAESQNAETEFFSKASKNFSIKRSSQKLSSGKMPIHDHDSGVEDEDFSPRPIPSPHPVSQKISKIQPSVPELSLVLDGNFIESNPLPTPLEMVNNENPPLINHLEHLKPLQPQLYDEKHSPEVEAGEPSLRGIPNQLNQDKPALLRHCKVRQPPAYKKGNPHTRNSIKPSSHNGPSHDIFEKLQTVSAGNVQNEEYPIRPSTLNSRQSSLAPQSQPHDFVFSPHNSGRPMELQIPTPPLPSYCSTNVCRCCQHHSHIQYSPLNSWQGANTVGSIQDVQSEALQKHSLFHPSGCPALYCNAFCSSSSPIALRPQGDMGSCSPHSNIEPSPVARPPSHMDLCNPQPCTVCMHTPKTESDNGMMGLSPDAYRFLTEQDRQLRLLQAQIQRLLEAQSLMPCSPKTTAVEDTVQAGRQMELVSVEAQSSPGLHMRKGVSIAVSTGASLFWNAAGEDQEPDSQMKQDDTKISSEDMNFSVDINNEVTSLPGSASSLKAVDIPSFEESNIAVEEEFNQPLSVSNSSLVVRKEPDVPVFFPSGQLAESVSMCLQTGPTGGASNNSETSEEPKIEHVMQPLLHQPSDNQKIYQDLLGQVNHLLNSSSKETEQPSTKAVIISHECTRTQNVYHTKKKTHHSRLVDKDCVLNATLKQLRSLGVKIDSPTKVKKNAHNVDHASVLACISPEAVISGLNCMSFANVGMSGLSPNGVDLSMEANAIALKYLNENQLSQLSVTRSNQNNCDPFSLLHINTDRSTVGLSLISPNNMSFATKKYMKRYGLLQSSDNSEDEEEPPDNADSKSEYLLNQNLRSIPEQLGGQKEPSKNDHEIINCSNCESVGTNADTPVLRNITNEVLQTKAKQQLTEKPAFLVKNLKPSPAVNLRTGKAEFTQHPEKENEGDITIFPESLQPSETLKQMNSMNSVGTFLDVKRLRQLPKLF [STIL]” are -0.362 and 0.239.
